The record followed here is the supplement of paper PMC6379048.

Holding throughout (assay): EC50 of free RNA motif oligo competing protein binding to immobilised probe
In one data set the target is T1, DAZAP1 (UniProt Q96EP5).
T1 sequence: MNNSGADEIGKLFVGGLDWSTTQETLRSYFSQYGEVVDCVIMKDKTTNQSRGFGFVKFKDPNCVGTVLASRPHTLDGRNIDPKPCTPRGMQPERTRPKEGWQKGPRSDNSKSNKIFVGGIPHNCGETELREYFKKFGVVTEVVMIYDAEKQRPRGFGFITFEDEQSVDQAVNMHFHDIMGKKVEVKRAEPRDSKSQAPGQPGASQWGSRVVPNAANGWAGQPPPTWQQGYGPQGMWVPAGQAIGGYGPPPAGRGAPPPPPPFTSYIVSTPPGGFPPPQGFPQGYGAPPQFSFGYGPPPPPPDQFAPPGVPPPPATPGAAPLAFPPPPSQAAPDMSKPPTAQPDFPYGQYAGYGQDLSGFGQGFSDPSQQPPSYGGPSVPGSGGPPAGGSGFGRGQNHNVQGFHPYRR
Summed up:
(§1)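 HEK293-FT lysate (2.5 mg protein/well) was pre-incubated 1 h at 4°C with free RNA oligos (0 nM to 30 μM), then 30 min at 4°C with the same 5′-amino-C6 oligos coupled to NHS-Sepharose beads. Bound proteins were quantified by label-free LC-MS/MS in three biological replicates and two independent experiments, and normalised to the water control. EC50 came from a four-parameter log-logistic fit; Kd is EC50 times a protein-dependent depletion factor.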

A further data set concerns the target T2, KHSRP (UniProt Q92945).
T2 sequence: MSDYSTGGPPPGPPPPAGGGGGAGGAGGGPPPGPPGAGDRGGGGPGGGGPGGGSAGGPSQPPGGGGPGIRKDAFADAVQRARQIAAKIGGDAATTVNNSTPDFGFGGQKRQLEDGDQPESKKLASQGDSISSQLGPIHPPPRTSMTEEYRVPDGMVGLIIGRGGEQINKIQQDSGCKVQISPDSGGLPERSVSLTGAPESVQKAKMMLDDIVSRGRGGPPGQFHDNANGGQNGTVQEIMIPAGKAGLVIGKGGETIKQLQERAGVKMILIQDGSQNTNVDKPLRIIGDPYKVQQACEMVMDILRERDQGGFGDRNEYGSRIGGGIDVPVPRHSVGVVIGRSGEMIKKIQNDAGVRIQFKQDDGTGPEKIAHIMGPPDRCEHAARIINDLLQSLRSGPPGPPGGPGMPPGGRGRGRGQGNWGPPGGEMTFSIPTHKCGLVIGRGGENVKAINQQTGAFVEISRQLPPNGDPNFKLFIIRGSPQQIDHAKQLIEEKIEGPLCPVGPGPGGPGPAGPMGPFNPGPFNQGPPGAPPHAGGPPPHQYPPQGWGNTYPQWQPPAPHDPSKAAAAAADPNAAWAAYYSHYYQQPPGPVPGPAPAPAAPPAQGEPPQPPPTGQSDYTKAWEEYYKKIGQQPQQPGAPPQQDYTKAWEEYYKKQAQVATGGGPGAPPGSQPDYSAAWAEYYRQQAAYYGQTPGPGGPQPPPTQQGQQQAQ
Summed up: as §1

A further data set has as its target T3, MEX3B (UniProt Q6ZN04).
T3 sequence: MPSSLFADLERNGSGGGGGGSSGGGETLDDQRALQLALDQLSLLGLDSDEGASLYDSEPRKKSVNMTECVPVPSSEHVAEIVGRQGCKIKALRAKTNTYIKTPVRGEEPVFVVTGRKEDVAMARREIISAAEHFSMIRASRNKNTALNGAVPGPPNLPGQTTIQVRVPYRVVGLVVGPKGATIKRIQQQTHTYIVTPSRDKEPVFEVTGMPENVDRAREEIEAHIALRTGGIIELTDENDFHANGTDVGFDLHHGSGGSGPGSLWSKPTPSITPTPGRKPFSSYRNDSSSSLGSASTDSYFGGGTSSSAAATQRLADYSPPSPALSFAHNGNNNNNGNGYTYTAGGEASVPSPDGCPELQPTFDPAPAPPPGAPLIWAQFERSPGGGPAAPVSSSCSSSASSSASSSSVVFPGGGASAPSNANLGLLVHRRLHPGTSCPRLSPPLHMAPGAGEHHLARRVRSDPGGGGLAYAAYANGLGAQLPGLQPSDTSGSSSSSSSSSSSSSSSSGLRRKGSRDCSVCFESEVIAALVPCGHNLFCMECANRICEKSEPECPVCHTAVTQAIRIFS
Summed up: as §1

A further data set has as its target MSI1 (UniProt O43347). Summed up:
as §1

The target in a further data set is T4, RBM4 (UniProt Q9BWF3).
T4 sequence: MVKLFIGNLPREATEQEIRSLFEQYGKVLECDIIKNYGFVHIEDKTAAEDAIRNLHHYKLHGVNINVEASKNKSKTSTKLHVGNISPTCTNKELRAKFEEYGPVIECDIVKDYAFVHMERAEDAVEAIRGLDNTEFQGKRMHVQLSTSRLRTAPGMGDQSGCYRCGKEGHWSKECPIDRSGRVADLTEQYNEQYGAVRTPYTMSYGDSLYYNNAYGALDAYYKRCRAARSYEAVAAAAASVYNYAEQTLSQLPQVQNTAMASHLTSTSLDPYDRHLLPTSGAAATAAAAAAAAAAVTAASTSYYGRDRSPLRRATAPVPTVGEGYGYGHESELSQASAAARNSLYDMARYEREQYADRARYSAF
The method in brief:
as §1

The next data set addresses T5, RBMS3 (UniProt Q6XE24).
T5 sequence: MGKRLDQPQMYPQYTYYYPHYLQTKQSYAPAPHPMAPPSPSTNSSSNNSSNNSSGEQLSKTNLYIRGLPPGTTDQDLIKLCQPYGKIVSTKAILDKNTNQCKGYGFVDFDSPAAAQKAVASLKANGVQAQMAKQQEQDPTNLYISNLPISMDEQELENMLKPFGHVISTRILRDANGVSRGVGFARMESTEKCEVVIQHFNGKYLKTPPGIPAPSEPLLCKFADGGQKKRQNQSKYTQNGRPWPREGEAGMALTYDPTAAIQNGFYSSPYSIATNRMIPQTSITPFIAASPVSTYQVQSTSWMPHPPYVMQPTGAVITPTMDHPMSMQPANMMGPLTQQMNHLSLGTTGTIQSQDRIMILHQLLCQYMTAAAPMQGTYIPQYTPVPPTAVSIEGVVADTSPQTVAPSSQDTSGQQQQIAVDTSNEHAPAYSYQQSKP
The method in brief: as §1

Sequence of MSI1 (O43347 whole entry): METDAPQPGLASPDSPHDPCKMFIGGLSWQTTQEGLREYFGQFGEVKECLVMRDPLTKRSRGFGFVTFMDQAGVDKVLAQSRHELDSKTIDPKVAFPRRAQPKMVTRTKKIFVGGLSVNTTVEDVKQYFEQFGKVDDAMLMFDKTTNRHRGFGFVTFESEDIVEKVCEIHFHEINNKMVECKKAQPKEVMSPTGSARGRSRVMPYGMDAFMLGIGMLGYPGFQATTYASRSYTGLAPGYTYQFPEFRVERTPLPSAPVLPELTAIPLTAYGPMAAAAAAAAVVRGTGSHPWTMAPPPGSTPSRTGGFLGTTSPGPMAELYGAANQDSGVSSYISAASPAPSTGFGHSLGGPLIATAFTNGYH

By EC50 is commonly meant the concentration at which the effect is half-maximal. Low values mean greater potency, high ones weaker potency. Regarding AAUAAA, the EC50 in the data set with DAZAP1 turned out to be 1240 nM; with KHSRP it was 2220 nM; with MEX3B, 1640 nM; with MSI1, 3500 nM; with RBM4 it was 4160 nM; with RBMS3 it was 1180 nM.
Take CUGUCCU: the EC50 in the data set with RBM4 came out at 371 nM.
Consider UAUUUAU, for which the EC50 was found to be 1220 nM with DAZAP1; 1730 nM with KHSRP; 728 nM with MEX3B; 487 nM with MSI1; 279 nM in the data set with RBMS3.
